The values below come from US20070022485, “Method of preparing transgenic organism with use of methylation and system therefor” (Japan Science Techonology Agency, published 2007).

Series [1] concerns Tc3 transposase (pRP2302) (Caenorhabditis elegans). The experiment in a line: cell_activity. As to conditions: 5mC at CpG; gene trap events in mouse ES cells.
Series [2] concerns the target T1, SB transposase N123 (N-terminal 123 aa DNA-binding domain) (Sleeping Beauty (synthetic, …)).
T1 chain: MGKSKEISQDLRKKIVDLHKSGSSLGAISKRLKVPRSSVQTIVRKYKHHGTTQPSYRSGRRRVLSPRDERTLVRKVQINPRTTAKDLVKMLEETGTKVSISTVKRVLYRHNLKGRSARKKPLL
The experiment in a line: EMSA; poly(dI-dC) 1 ug, 25 C, 30 min. To be noted: tags: C-terminal His6 (pET21d, E. coli); label: 32P 5'. As to the method: (§1) This oligonucleotide was first labeled with [γ-³²P]ATP using T4 polynucleotide kinase, and then annealed. DNA fragment of IR/DR-L was digested with HindIII and KpnI for the preparation, and thereafter, the fragment was methylated using SssI methylase or kept unmethylated and then the fragment was treated with an alkaline phosphatase. The digested fragment was extracted using phenol-chloroform, and precipitated with ethanol, and then finally, T4 polynucleotide was used to label with [γ-³²P]ATP. In the presence of poly(dI-dC) (1.0 μg), 0.2 pmol of oligonucleotide probe or 100 pg of IR/DR-L fragment, and 1.0 μl of N123, a nucleoprotein complex was formed in a buffer described previously in Ivics, Z., P. B. Hackett, R. H. Plasterk, and Z. Izsvak. 1997; Cell 91:501-510). After a thirty minute incubation at 25 degrees Celsius, samples were loaded on a 5%-native polyacrylamide gel, and electrophoresed at 150V constant voltage, and in 0.5× Tris-borate-EDTA, 1.5 hours for oligonucleotide probe and 2.5 hours for IR/DR-L fragment. After the gel was dried, the nucleoprotein was visualized by autoradiography.
(§2) In order to clarify the mechanism of transposition which has been enhanced by methylation of CpG, the present inventors have compared the affinity of recombinant SB transposase peptide against the methylated IR/DR and unmethylated IR/DR by EMSA. […]
On the technique in general: In EMSA bound probe runs differently from free probe, usually more slowly.

In series [3] the target is T1, SB transposase N123 (N-terminal 123 aa …). The experiment in a line: EMSA; shift and competition comparable to unmethylated site; poly(dI-dC) 1 ug, 25 C. As to conditions: tags: C-terminal His6 (pET21d, E. coli); label: 32P 5'. The protocol:
as §1, §2

Turning to “Tc3 transposon vector pTc3/SAβ-geo, CpG methylated”, the binding signal (fold vs unmethylated) in series [1] is 2.

B1: IR/DR-L outer binding site, unmethylated 34 bp (dsDNA)
DNA 1: TACAGTTGAAGTCGGAAGTTTACATACACTTAAG
DNA 2: CTTAAGTGTATGTAAACTTCCGACTTCAACTGTA
With B1, in series [2], the binding result was “binds”.

B2: IR/DR-L outer binding site, methylated 34 bp (dsDNA)
DNA 1: B1 DNA 1
DNA 2: B1 DNA 2
modifications: 5mC at the CpG on both strands (n in SEQ:64 and SEQ:65)
Turning to B2, the binding result in series [3] is given as “binds”.
